# From patent US20200123264A1 (Regeneron, published 2020)
# B1: H4H18437P2 (antibody, human IgG4, V domains shown)
# VH: QVQLVESGGGVVQPGRSLRLSCAASGFTFSSYGIHWVRQAPGKGLEWVAVISYDGNNKYYADSVKGRFTISRDNSKNTLYLQMNSLRAEDTAVYYCAKDLFLEWLFHGMGVWGQGTTVTVSS
# VL: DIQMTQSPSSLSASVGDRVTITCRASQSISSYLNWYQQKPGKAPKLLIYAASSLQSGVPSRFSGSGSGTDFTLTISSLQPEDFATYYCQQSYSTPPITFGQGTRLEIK
# notes: H4H prefix: human IgG4 Fc
# B2: H4H18466P2 (antibody, human IgG4, V domains shown)
# VH: EVQLVESGGGLVQPGGSLRLSCTASGFTFSSYGLHWVRQAPGKGLEYVSSINHNGGSKYYADSVKGRFTISRDNSKNTLFLQMGSLKTEDMAVYYCARDLFLEWLFHGFDIWGQGTMVTVSS
# VL: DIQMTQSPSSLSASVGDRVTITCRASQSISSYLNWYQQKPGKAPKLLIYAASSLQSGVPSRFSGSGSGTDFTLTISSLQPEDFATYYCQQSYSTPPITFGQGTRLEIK
# notes: H4H prefix: human IgG4 Fc
# B3: H4H18439P2 (antibody, human IgG4, V domains shown)
# VH: QLQLQESGPGLVKPSETLSLTCIVSGGDITSSSYYWNWIRQPPGKGLEWIGNIYYSGSTNYNPSLKSRVTISIDTSKSQFSLKLRSVTAADTAVYYCARLLRYFDWSKGYLDYWGQGTLVTVSS
# VL: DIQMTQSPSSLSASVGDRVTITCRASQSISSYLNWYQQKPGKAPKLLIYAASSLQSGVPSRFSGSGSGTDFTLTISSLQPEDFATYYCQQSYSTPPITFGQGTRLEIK
# notes: H4H prefix: human IgG4 Fc
# Tests used:
# [1] = molecular target: T1, recombinant mouse LEPR extracellular domain expressed with a C-terminal myc-myc-hexahistidine tag (mouse, UniProt P48356 22-839); assay: SPR, mAb captured, 37 C
# T1 construct: Monomeric construct; also called mLEPR.MMH; mLEPR-MMH
# Procedure: (§1) Equilibrium dissociation constants (KD values) for antigen binding to purified anti-LEPR monoclonal antibodies of the invention were determined using a real-time surface plasmon resonance biosensor using a Biacore 4000 instrument. All binding studies were performed in running buffer containing 10 mM HEPES, 150 mM NaCl, 3 mM EDTA, and 0.05% v/v Surfactant Tween-20, pH 7.4 (HBS-ET running buffer) at 25° C. and 37° C. The Biacore sensor surface was first derivatized by amine coupling with a monoclonal mouse anti-human Fc antibody (GE, # BR-1008-39) to the capture anti-LEPR monoclonal antibodies. The LEPR reagents tested for binding to the anti-LEPR monoclonal antibodies included recombinant human LEPR extracellular domain expressed with a C-terminal myc-myc-hexahistidine tag (hLEPR.MMH; SEQ ID NO:90), recombinant cynomolgus monkey LEPR extracellular domain expressed with a C-terminal myc-myc-hexahistidine tag (mfLEPR.MMH; SEQ ID NO:93), recombinant mouse LEPR extracellular domain expressed with a C-terminal myc-myc-hexahistidine tag (mLEPR.MMH; SEQ ID NO:94), recombinant rat LEPR extracellular domain expressed with a C-terminal myc-myc-hexahistidine tag (rLEPR.MMH; SEQ ID NO:95), and recombinant human LEPR extracellular domain expressed with a C-terminal mouse IgG2a Fc tag (hLEPR.mFc; SEQ ID NO:91). LEPR constructs that include MMH tags are monomeric LEPR constructs, and LEPR constructs including an mFc tag are dimeric LEPR constructs. […] The dissociation of monoclonal antibody bound LEPR reagent was monitored for 10 minutes in HBS-ET running buffer. Kinetic association (10 and dissociation (10 rate constants were determined by fitting the real-time binding sensorgrams to a 1:1 binding model with mass transport limitation using Scrubber 2.0c curve-fitting software. Binding dissociation equilibrium constants (KD) and dissociative half-lives (t½) were calculated from the kinetic rate constants as: […]
# [2] = molecular target: T2, recombinant cynomolgus monkey LEPR extracellular domain expressed with a C-terminal myc-myc-hexahistidine tag (cynomolgus monkey, UniProt Q9MYL0 22-837 (rhesus entry)); assay: SPR, mAb captured, 37 C
# T2 construct: Monomeric construct; also called mfLEPR.MMH; mfLEPR-MMH
# Procedure: as §1
# [3] = molecular target: T3, recombinant human LEPR extracellular domain expressed with a C-terminal mouse IgG2a Fc tag (human); assay: SPR, mAb captured, 37 C
# T3 construct: Dimeric construct; also called hLEPR.mFc; hLEPR-mFc
# T3 chain: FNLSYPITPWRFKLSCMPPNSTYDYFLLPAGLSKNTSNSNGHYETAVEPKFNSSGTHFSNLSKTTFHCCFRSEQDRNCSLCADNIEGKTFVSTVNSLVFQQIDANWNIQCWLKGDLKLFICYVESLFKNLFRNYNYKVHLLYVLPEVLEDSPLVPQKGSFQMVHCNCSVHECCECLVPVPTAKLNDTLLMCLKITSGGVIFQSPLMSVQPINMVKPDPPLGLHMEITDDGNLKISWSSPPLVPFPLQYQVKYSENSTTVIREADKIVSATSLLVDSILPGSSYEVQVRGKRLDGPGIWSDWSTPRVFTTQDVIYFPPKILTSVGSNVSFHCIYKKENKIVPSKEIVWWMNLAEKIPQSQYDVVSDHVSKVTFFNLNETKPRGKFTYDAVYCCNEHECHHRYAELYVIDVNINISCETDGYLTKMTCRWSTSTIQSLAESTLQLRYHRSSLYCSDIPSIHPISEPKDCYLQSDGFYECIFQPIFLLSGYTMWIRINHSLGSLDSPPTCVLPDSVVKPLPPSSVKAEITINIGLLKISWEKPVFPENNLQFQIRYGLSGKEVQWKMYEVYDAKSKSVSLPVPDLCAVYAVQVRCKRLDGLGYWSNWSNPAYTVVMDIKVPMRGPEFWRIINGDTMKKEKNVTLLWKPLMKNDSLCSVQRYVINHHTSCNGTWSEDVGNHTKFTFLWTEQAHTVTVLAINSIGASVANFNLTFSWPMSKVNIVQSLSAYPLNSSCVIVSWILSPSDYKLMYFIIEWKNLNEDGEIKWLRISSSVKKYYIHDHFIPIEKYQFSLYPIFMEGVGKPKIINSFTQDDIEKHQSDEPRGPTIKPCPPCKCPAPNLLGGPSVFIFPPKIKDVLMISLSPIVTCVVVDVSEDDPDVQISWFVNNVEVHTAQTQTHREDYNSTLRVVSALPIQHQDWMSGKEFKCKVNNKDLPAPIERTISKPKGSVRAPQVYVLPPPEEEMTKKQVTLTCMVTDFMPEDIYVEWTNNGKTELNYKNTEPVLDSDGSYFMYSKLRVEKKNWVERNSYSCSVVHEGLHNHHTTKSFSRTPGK
# Procedure: as §1
# [4] = molecular target: T1, recombinant mouse LEPR extracellular …; assay: SPR, mAb captured, 25 C
# Procedure: as §1
# [5] = molecular target: T4, recombinant human LEPR extracellular domain expressed with a C-terminal myc-myc-hexahistidine tag (human, UniProt P48357 22-839); assay: SPR, mAb captured, 25 C
# T4 construct: Monomeric construct; also called hLEPR.MMH; hLEPR-MMH
# Procedure: as §1
# [6] = molecular target: T2, recombinant cynomolgus monkey LEPR …; assay: SPR, mAb captured, 25 C
# Procedure: as §1
# [7] = molecular target: T3, recombinant human LEPR extracellular …; assay: SPR, mAb captured, 25 C
# Procedure: as §1
# [8] = molecular target: T5, recombinant rat LEPR extracellular domain expressed with a C-terminal myc-myc-hexahistidine tag (rat, UniProt Q62959 22-839); assay: SPR, mAb captured, 25 C
# T5 construct: Monomeric construct; also called rLEPR.MMH; rLEPR-MMH
# Procedure: as §1
# T1 sequence (P48356 other isoform, or with tags, fused parts or gaps): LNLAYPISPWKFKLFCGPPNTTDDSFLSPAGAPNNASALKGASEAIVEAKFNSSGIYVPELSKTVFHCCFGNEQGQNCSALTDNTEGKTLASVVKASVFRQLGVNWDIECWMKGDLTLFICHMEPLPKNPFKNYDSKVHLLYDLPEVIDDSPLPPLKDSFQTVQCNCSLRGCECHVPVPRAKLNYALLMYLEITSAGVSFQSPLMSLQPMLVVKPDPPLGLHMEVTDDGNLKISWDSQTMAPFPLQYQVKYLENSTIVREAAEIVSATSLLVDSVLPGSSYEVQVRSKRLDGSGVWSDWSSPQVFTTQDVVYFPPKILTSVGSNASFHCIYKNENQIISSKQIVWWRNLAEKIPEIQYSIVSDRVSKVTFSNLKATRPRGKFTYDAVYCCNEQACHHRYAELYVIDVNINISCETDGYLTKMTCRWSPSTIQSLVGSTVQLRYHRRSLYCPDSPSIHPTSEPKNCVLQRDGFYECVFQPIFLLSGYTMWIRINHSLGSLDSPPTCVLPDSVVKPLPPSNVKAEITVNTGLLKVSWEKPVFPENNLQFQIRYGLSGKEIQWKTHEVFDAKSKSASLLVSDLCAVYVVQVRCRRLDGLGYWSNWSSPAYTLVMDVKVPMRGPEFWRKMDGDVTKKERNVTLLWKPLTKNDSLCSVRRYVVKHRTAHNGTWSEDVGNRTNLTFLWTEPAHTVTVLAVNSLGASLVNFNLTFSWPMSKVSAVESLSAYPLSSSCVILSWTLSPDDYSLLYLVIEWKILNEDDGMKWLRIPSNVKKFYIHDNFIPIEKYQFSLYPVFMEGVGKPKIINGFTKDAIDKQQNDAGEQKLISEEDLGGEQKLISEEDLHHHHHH
# T5 sequence (Q62959 other isoform, or with tags, fused parts or gaps): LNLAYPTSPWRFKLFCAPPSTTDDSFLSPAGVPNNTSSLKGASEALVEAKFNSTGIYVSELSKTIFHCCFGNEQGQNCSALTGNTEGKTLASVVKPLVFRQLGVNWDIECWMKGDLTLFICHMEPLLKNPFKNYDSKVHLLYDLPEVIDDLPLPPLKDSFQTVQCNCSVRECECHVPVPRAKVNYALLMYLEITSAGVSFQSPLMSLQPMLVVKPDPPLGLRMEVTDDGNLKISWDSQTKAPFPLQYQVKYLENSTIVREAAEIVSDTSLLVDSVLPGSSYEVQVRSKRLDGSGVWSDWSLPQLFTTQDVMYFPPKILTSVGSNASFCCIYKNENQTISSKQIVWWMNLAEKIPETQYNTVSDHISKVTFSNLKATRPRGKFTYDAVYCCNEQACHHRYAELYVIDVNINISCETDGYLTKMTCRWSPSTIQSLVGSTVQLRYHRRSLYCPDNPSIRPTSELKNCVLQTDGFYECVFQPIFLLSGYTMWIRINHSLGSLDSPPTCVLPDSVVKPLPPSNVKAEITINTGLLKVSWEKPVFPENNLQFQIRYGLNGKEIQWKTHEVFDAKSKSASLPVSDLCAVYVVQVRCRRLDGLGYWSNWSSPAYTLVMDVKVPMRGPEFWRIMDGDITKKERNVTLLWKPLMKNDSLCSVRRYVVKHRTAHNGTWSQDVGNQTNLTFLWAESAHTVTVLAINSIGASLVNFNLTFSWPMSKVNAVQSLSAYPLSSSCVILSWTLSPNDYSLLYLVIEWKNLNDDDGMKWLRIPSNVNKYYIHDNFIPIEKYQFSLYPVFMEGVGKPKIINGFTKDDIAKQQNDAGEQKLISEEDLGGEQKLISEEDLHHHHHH
binder,measurement,setting,value
B1,100 nM mLEPR-MMH Bound (RU),[1],6 RU
same,Kd,[1],1160 nM
same,koff,[1],0.0133 s⁻¹
same,kon,[1],11500 M⁻¹ s⁻¹
same,t½,[1],0.9 min
same,100 nM mfLEPR-MMH Bound (RU),[2],58 RU
same,Kd,[2],147 nM
same,koff,[2],0.0127 s⁻¹
same,kon,[2],86900 M⁻¹ s⁻¹
same,t½,[2],0.9 min
same,100 nM hLEPR-mFc Bound (RU),[3],88 RU
same,Kd,[3],4.3 nM
same,koff,[3],0.000556 s⁻¹
same,kon,[3],129000 M⁻¹ s⁻¹
same,t½,[3],21 min
same,100 nM mLEPR-MMH Bound (RU),[4],6 RU
same,Kd,[4],264 nM
same,koff,[4],0.00418 s⁻¹
same,kon,[4],15800 M⁻¹ s⁻¹
same,t½,[4],2.8 min
same,100 nM hLEPR-MMH Bound (RU),[5],56 RU
same,Kd,[5],65.3 nM
same,koff,[5],0.00375 s⁻¹
same,kon,[5],57400 M⁻¹ s⁻¹
same,t½,[5],3.1 min
same,100 nM mfLEPR-MMH Bound (RU),[6],70 RU
same,Kd,[6],58.9 nM
same,koff,[6],0.00405 s⁻¹
same,kon,[6],68700 M⁻¹ s⁻¹
same,t½,[6],2.9 min
same,100 nM hLEPR-mFc Bound (RU),[7],70 RU
same,Kd,[7],5.27 nM
same,koff,[7],0.000536 s⁻¹
same,kon,[7],102000 M⁻¹ s⁻¹
same,t½,[7],22 min
same,100 nM rLEPR-MMH Bound (RU),[8],13 RU
same,Kd,[8],328 nM
same,koff,[8],0.0138 s⁻¹
same,kon,[8],42100 M⁻¹ s⁻¹
same,t½,[8],0.8 min
B2,100 nM mLEPR-MMH Bound (RU),[1],3 RU
same,100 nM mfLEPR-MMH Bound (RU),[2],27 RU
same,Kd,[2],164 nM
same,koff,[2],0.0138 s⁻¹
same,kon,[2],84300 M⁻¹ s⁻¹
same,t½,[2],0.8 min
same,100 nM hLEPR-mFc Bound (RU),[3],52 RU
same,Kd,[3],8.86 nM
same,koff,[3],0.00052 s⁻¹
same,kon,[3],58700 M⁻¹ s⁻¹
same,t½,[3],22 min
same,100 nM mLEPR-MMH Bound (RU),[4],1 RU
same,binding result,[4],no binding (tested: 100 nM)
same,100 nM hLEPR-MMH Bound (RU),[5],24 RU
same,Kd,[5],194 nM
same,koff,[5],0.00511 s⁻¹
same,kon,[5],26400 M⁻¹ s⁻¹
same,t½,[5],2.3 min
same,100 nM mfLEPR-MMH Bound (RU),[6],30 RU
same,Kd,[6],148 nM
same,koff,[6],0.00669 s⁻¹
same,kon,[6],45000 M⁻¹ s⁻¹
same,t½,[6],1.7 min
same,100 nM hLEPR-mFc Bound (RU),[7],37 RU
same,Kd,[7],11.9 nM
same,koff,[7],0.000472 s⁻¹
same,kon,[7],39700 M⁻¹ s⁻¹
same,t½,[7],24 min
same,100 nM rLEPR-MMH Bound (RU),[8],5 RU
same,Kd,[8],943 nM
same,koff,[8],0.0198 s⁻¹
same,kon,[8],21000 M⁻¹ s⁻¹
same,t½,[8],0.6 min
B3,100 nM mLEPR-MMH Bound (RU),[1],-1 RU
same,100 nM mfLEPR-MMH Bound (RU),[2],14 RU
same,Kd,[2],169 nM
same,koff,[2],0.00792 s⁻¹
same,kon,[2],46900 M⁻¹ s⁻¹
same,t½,[2],1.5 min
same,100 nM hLEPR-mFc Bound (RU),[3],67 RU
same,Kd,[3],15.1 nM
same,koff,[3],0.000923 s⁻¹
same,kon,[3],60900 M⁻¹ s⁻¹
same,t½,[3],13 min
same,100 nM mLEPR-MMH Bound (RU),[4],-2 RU
same,100 nM hLEPR-MMH Bound (RU),[5],21 RU
same,Kd,[5],106 nM
same,koff,[5],0.00113 s⁻¹
same,kon,[5],10700 M⁻¹ s⁻¹
same,t½,[5],10 min
same,100 nM mfLEPR-MMH Bound (RU),[6],22 RU
same,Kd,[6],96.3 nM
same,koff,[6],0.00152 s⁻¹
same,kon,[6],15700 M⁻¹ s⁻¹
same,t½,[6],8 min
same,100 nM hLEPR-mFc Bound (RU),[7],53 RU
same,Kd,[7],3.69 nM
same,koff,[7],0.00018 s⁻¹
same,kon,[7],48700 M⁻¹ s⁻¹
same,t½,[7],64 min
same,100 nM rLEPR-MMH Bound (RU),[8],-1 RU
